Earlier results as cited in patent US7759315B2, “Treatment of inflammatory conditions of the intestine” (CSL Behring AG, priority 2005, dated 2010).
Non-standard residues stand in square brackets, D forms with d. No end group written: not given here. Nal = naphthylalanine (source code Z); Aib = CC(C)(N)C(=O)O

Key:
[1] = percent helicity; for He (%): micelles
LCAT = molecular target: T1, LCAT (Homo sapiens, UniProt P04180)
T1 sequence (P04180 25-440): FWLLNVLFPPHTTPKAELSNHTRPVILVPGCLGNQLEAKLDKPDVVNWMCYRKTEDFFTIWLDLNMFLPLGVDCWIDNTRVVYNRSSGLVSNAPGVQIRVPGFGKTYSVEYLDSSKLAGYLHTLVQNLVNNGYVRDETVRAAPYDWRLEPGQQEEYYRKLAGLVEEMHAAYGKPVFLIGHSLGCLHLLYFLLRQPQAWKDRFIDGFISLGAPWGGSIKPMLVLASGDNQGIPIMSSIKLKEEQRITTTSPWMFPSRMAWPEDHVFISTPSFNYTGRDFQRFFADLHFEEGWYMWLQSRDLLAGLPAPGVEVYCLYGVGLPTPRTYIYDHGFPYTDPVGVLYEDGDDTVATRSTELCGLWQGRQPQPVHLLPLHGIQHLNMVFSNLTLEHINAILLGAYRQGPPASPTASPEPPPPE

Substance | ACTIVITY (%) LCAT (LCAT) | He (%) [1] | Crohn's disease activity index (CDAI) (Crohn's disease patients) | histopathological and endoscopic inflammation (Crohn's disease patients) | He (%) free ([1]; free peptide)
PVLDEFREKLNEALEALKQKLK [Peptide 94, [A^13]-Consensus 22-mer peptide (Anantharamaiah et al., 1990), reference compound] | 5% | 70% |  |  | 
PVLDLFRELLNWXLEALKQKLK (PVLDLFRELLNW[Aib]LEALKQKLK; not fully specified (C-terminus)) [Peptide 101] | 2% | sp |  |  | 
PVLDLFRELLNELLEALKQ~~~ [Peptide 60] | 16% | 83% |  |  | 
KLKQKLAELLENLLERFLDLVP [Peptide 99] | 2% | 88% |  |  | 
PVLELFENWLERLLDALQKKLK [Peptide 162] | 27% | 83% |  |  | 
PVLDLFRELLEELKQKLK* (not fully specified (N-terminus, C-terminus); printed as PVLDLFRELLEELKQKLK*) [Peptide 193] | 96% | 88% |  |  | 
PVLELFENLLERGLDALQKKLK [Peptide 154] | 39% | 76% |  |  | 
PVLELFENLLERLGDALQKKLK [Peptide 148] | 75% | 76% |  |  | 
pvldefreklneXlealkgklk ([dP][dV][dL][dD][dE][dF][dR][dE][dK][dL][dN][dE][Aib][dL][dE][dA][dL][dK][dQ][dK][dL][dK]) [Peptide 44] | 25% | 86% |  |  | 
DWLKAFYDKVAEKLKEAF* (not fully specified (N-terminus, C-terminus); printed as DWLKAFYDKVAEKLKEAF*) [Peptide 240] | 10% | 68% |  |  | 
EWLEAFYKKVLEKLKELF* (Ac-EWLEAFYKKVLEKLKELF-NH2) [Peptide 239, Ac-18AM4-C(O)NH2 peptide (Brasseur, 1993), reference compound] | 11% | 49% |  |  | 
EWLKAFYEKVLEKLKELF* (Ac-EWLKAFYEKVLEKLKELF-NH2) [Peptide 238, Ac-18AMOD-C(O)NH2 peptide (Epand et al., 1987), reference compound] | 19% | 72% |  |  | 
PVLELFENLLERLLDWLQKKLK [Peptide 160] | 28% | 73% |  |  | 
PVLDLFWELLNEXLEALKQKLK (PVLDLFWELLNE[Aib]LEALKQKLK; not fully specified (C-terminus)) [Peptide 51] | 20% | 82% |  |  | 
PVLDLFRELLNEGLEALKQKLK [Peptide 8] | 83% | 90% |  |  | 
Infliximab |  |  | significant reduction | attenuation | 

Further lines, with some results ahead:

ACTIVITY (%) LCAT (LCAT) | Substance | He (%) [1] | Crohn's disease activity index (CDAI) (Crohn's disease patients) | histopathological and endoscopic inflammation (Crohn's disease patients) | He (%) free ([1]; free peptide)
63% | PVLELFENLWERLLDALQKKLK [Peptide 149] | 54% |  |  | 
5% | pvldlfrellneXlealkgklk ([dP][dV][dL][dD][dL][dF][dR][dE][dL][dL][dN][dE][Aib][dL][dE][dA][dL][dK][dQ][dK][dL][dK]) [Peptide 96] | 85% |  |  | 
21% | PVLDLFRELLWEXLEALKQKLK (PVLDLFRELLWE[Aib]LEALKQKLK; not fully specified (C-terminus)) [Peptide 50] | 84% |  |  | 
11% | PVLDLFRELLNEXLWALKQKLK (PVLDLFRELLNE[Aib]LWALKQKLK; not fully specified (C-terminus)) [Peptide 72] | sp |  |  | 
9% | PVLDEFRELLFEXLEALKQKLK (PVLDEFRELLFE[Aib]LEALKQKLK; not fully specified (C-terminus)) [Peptide 76] | 88% |  |  | 
14% | ~VLDLFRELLNELLEALKQKLK [Peptide 67] | 90% |  |  | 
32% | PVLDZFRELLNELLEALKQKLK (PVLD[Nal]FRELLNELLEALKQKLK; not fully specified (C-terminus)) [Peptide 34] | 67% |  |  | 
7% | P~LDLFRELLNELLEALKQKLK (PLDLFRELLNELLEALKQKLK) [Peptide 85] | 61% |  |  | 
26% | PVLELFENLLERLWDALQKKLK [Peptide 163] | 53% |  |  | 
38% | PVLDLFRELLEEWKQKLK* (not fully specified (N-terminus, C-terminus); printed as PVLDLFRELLEEWKQKLK*) [Peptide 215] | 63% |  |  | 
31% | PLLELLKELLQELLEALKQKLK [Peptide 36] | 100% |  |  | 
22% | PVLDLFRELLEELQKKLK [Peptide 220] | 64% |  |  | 
7% | pllellkellqellealkqklk ([dP][dL][dL][dE][dL][dL][dK][dE][dL][dL][dQ][dE][dL][dL][dE][dA][dL][dK][dQ][dK][dL][dK]; not fully specified (C-terminus); printed as pllellkellqellealkqklk) [Peptide 87] | 100% |  |  | 
81% | PLLDLFRELLEELKQKLK* (not fully specified (N-terminus, C-terminus); printed as PLLDLFRELLEELKQKLK*) [Peptide 197] | 70% |  |  | 
1% | PAADAFREAANEAAEAAKQKAK [Peptide 105] | 28% |  |  | 
3% | EWLKAFYEKVLEKLKELF [Peptide 248, [Glu^1.8; Leu^5,11,17]; 18A peptide (Epand et al., 1987), reference compound] | 45% |  |  | 
5% | PVLDLFRELLNLXLEALKQKLK (PVLDLFRELLNL[Aib]LEALKQKLK; not fully specified (C-terminus)) [Peptide 95] | sp |  |  | 
111% | pVLELFENLLERLLDALQKKLK ([dP]VLELFENLLERLLDALQKKLK; not fully specified (C-terminus); printed as pVLELFENLLERLLDALQKKLK) [Peptide 144] | 88% |  |  | 89%
5% | DWLKAPYDKVAEKLKEAF (DWLKAFYDKVAEKLKEAF) [Peptide 244, 18A peptide (Anantharamiah et al., 1985), reference compound] | 40% |  |  | 
